{"source": "patent US20240343814A1", "binders": {"B1": {"name": "VRDN-02500 (antibody, human IgG1, kappa, V domains shown)", "VH": "EVQLVQSGGGLVKPGGSLRLSCAASGFTFSSFAMHWVRQAPGKGLEWISVIDTRGATYYADSVKGRFTISRDNAKNSLYLQMNSLRAEDTAVYYCARLGNFYYGMDVWGQGTTVTVSS", "VL": "EIVLTQSPGTLSVSPGERATLSCRASQSIGSSLHWYQQKPGQAPRLLIKYASQSLSGIPDRFSGSGSGTDFTLTISRLEPEDFAVYYCHQSSRLPHTFGQGTKVEIKR"}, "B2": {"name": "VRDN-02515 (antibody, V domains shown)", "VH": "B1 VH with T57H", "VL": "EIVLTQSPGTLSVSPGERATLSCRASQSIGSSLHWYQQKPGQAPRLLIKYASQSLSGIPDRFSGSGSGTDFTLTISRLEPEDFAVYYCHQSSRLPHTFGQGTKVEIK"}, "B3": {"name": "VRDN-02513 (antibody, V domains shown)", "VH": "B1 VH with G55H", "VL": "B2 VL"}, "B4": {"name": "VRDN-02511 (antibody, V domains shown)", "VH": "B1 VH with T53H", "VL": "B2 VL"}, "B5": {"name": "VRDN-02567 (antibody, V domains shown)", "VH": "B1 VH with G104H, M105H", "VL": "B2 VL"}, "B6": {"name": "VRDN-02509 (antibody, V domains shown)", "VH": "B1 VH with M34H", "VL": "B2 VL"}, "B7": {"name": "VRDN-02566 (antibody, V domains shown)", "VH": "B1 VH with A96H, M105H", "VL": "B2 VL"}, "B8": {"name": "VRDN-02507 (antibody, V domains shown)", "VH": "B1 VH with F32H", "VL": "B2 VL"}, "B9": {"name": "VRDN-02508 (antibody, V domains shown)", "VH": "B1 VH with A33H", "VL": "B2 VL"}, "B10": {"name": "VRDN-02565 (antibody, V domains shown)", "VH": "B1 VH with A96H, G104H", "VL": "B2 VL"}, "B11": {"name": "VRDN-02514 (antibody, V domains shown)", "VH": "B1 VH with A56H", "VL": "B2 VL"}, "B12": {"name": "VRDN-02560 (antibody, V domains shown)", "VH": "B1 VH with A33H, G104H", "VL": "B2 VL"}, "B13": {"name": "VRDN-02510 (antibody, V domains shown)", "VH": "B1 VH with D52H", "VL": "B2 VL"}, "B14": {"name": "VRDN-02526 (antibody, V domains shown)", "VH": "B1 VH with D106H", "VL": "B2 VL"}, "B15": {"name": "VRDN-02506 (antibody, V domains shown)", "VH": "B1 VH with S31H", "VL": "B2 VL"}, "B16": {"name": "VRDN-02512 (antibody, V domains shown)", "VH": "B1 VH with R54H", "VL": "B2 VL"}}, "note": "Changes are numbered by the printed parent chain.", "data": [{"molecular_target": "Recombinant human his-tagged IGF 1R extracellular domain protein (human) (UniProt P08069)", "assay": "SPR, captured IgG, IGF-1R ECD-his analyte, dissociation pH 6", "units": {"Kd": "nM", "kon": "M⁻¹ s⁻¹", "koff": "s⁻¹"}, "values": [{"binder": "B1", "Kd": "< 0.0161", "kon": 47500}, {"binder": "B2", "Kd": 0.692, "koff": "6.92e-05", "kon": 100000}, {"binder": "B3", "Kd": 0.0322, "koff": "1e-06", "kon": 31100}, {"binder": "B4", "Kd": 4.28, "koff": 0.000672, "kon": 157000}, {"binder": "B5", "Kd": 5.41, "koff": 0.000569, "kon": 105000}, {"binder": "B6", "Kd": 0.0285, "koff": "1e-06", "kon": 35100}, {"binder": "B7", "Kd": 3, "koff": 0.00885, "kon": "2.95e+06"}, {"binder": "B8", "Kd": 0.0469, "koff": "1e-06", "kon": 21300}, {"binder": "B9", "Kd": 3.9, "koff": 0.000207, "kon": 53100}, {"binder": "B10", "Kd": 5.77, "koff": 0.0198, "kon": "3.43e+06"}, {"binder": "B11", "Kd": 0.0283, "koff": "1e-06", "kon": 35300}, {"binder": "B12", "Kd": 0.996, "koff": 0.000541, "kon": 543000}, {"binder": "B13", "Kd": 3.84, "koff": 0.000116, "kon": 30200}, {"binder": "B14", "Kd": "< 0.0273", "kon": 36600}, {"binder": "B15", "Kd": 0.0267, "koff": "1e-06", "kon": 37400}, {"binder": "B16", "Kd": 1.2, "koff": "3.96e-05", "kon": 32900}]}, {"molecular_target": "Recombinant human his-tagged IGF 1R extracellular domain protein (human) (UniProt P08069)", "assay": "SPR, captured IgG, IGF-1R ECD-his analyte, dissociation pH 6; dissociation at pH 6", "units": {"koff": "s⁻¹"}, "values": [{"binder": "B1", "koff": "< 1e-06"}, {"binder": "B14", "koff": "< 1e-06"}]}, {"molecular_target": "Recombinant human his-tagged IGF 1R extracellular domain protein (human) (UniProt P08069)", "assay": "SPR, captured IgG, IGF-1R ECD-his analyte, dissociation pH 7.4; dissociation at pH 7.4", "units": {"koff": "s⁻¹"}, "values": [{"binder": "B11", "koff": "< 1e-06"}]}, {"molecular_target": "Recombinant human his-tagged IGF 1R extracellular domain protein (human) (UniProt P08069)", "assay": "SPR, captured IgG, IGF-1R ECD-his analyte, dissociation pH 7.4", "units": {"Kd": "nM", "koff": "s⁻¹", "kon": "M⁻¹ s⁻¹"}, "values": [{"binder": "B1", "Kd": 0.626, "koff": "3.89e-05", "kon": 62100}, {"binder": "B2", "Kd": 0.571, "koff": "5.82e-05", "kon": 102000}, {"binder": "B3", "Kd": 1.06, "koff": "5.09e-05", "kon": 48200}, {"binder": "B4", "Kd": 41.6, "koff": 0.0319, "kon": 766000}, {"binder": "B5", "Kd": 2.77, "koff": 0.000473, "kon": 171000}, {"binder": "B6", "Kd": 0.285, "koff": "4.81e-05", "kon": 169000}, {"binder": "B7", "Kd": 17.4, "koff": 0.0197, "kon": "1.14e+06"}, {"binder": "B8", "Kd": 0.1, "koff": "1.99e-05", "kon": 199000}, {"binder": "B9", "Kd": 0.00515, "koff": "1e-06", "kon": 194000}, {"binder": "B10", "Kd": 9.12, "koff": 0.0243, "kon": "2.66e+06"}, {"binder": "B11", "Kd": "< 0.00926", "kon": 108000}, {"binder": "B12", "Kd": 0.933, "koff": 0.0336, "kon": "3.61e+07"}, {"binder": "B13", "Kd": 0.214, "koff": "5.3e-05", "kon": 248000}, {"binder": "B14", "Kd": 0.00543, "koff": "1e-06", "kon": 184000}, {"binder": "B15", "Kd": 0.0143, "koff": "1e-06", "kon": 69900}, {"binder": "B16", "Kd": 6.08, "koff": 0.000271, "kon": 44600}]}]}
